Reference: patent US6348311B1, “ATM kinase modulation for screening and therapies” (St. Jude Childre's Research Hospital, priority 1999, dated 2002)
One block for each molecule: values may come before it. Where no end group is shown, it is not given here.

Legend:
Format in all cases: biochemical
ATM kinase = biological target: T1, ATM kinase (Homo sapiens, UniProt Q13315); test: In vitro kinase assay, ATM with GST-peptide / GST-fusion substrates; details: for Relative Phosphorylation (%) ATM: GST-peptide substrate, relative to the p53ser15 site; for phosphorylation by ATM in vitro (in words): larger GST-fusion fragments or full-length proteins as substrates; for phosphorylation of GST-peptide substrate by ATM (in words): GST-conjugated 14 amino acid peptides;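 as to all read-outs here: immunoprecipitated ATM incubated with [γ-32P]ATP at 30 °C for 20 min, substrates resolved by SDS-PAGE and radiolabel incorporation quantified by PhosphorImager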
T1 construct: The full-length cDNA encoding NH2-terminal, FLAG-tagged wild-type ATM; made in house; host or cells: 293T cells, transient transfection with pcDNA-FLAG-ATMwt, anti-FLAG M2 immunoprecipitate on beads
T1 sequence (Q13315 whole entry, the tested form may be a part): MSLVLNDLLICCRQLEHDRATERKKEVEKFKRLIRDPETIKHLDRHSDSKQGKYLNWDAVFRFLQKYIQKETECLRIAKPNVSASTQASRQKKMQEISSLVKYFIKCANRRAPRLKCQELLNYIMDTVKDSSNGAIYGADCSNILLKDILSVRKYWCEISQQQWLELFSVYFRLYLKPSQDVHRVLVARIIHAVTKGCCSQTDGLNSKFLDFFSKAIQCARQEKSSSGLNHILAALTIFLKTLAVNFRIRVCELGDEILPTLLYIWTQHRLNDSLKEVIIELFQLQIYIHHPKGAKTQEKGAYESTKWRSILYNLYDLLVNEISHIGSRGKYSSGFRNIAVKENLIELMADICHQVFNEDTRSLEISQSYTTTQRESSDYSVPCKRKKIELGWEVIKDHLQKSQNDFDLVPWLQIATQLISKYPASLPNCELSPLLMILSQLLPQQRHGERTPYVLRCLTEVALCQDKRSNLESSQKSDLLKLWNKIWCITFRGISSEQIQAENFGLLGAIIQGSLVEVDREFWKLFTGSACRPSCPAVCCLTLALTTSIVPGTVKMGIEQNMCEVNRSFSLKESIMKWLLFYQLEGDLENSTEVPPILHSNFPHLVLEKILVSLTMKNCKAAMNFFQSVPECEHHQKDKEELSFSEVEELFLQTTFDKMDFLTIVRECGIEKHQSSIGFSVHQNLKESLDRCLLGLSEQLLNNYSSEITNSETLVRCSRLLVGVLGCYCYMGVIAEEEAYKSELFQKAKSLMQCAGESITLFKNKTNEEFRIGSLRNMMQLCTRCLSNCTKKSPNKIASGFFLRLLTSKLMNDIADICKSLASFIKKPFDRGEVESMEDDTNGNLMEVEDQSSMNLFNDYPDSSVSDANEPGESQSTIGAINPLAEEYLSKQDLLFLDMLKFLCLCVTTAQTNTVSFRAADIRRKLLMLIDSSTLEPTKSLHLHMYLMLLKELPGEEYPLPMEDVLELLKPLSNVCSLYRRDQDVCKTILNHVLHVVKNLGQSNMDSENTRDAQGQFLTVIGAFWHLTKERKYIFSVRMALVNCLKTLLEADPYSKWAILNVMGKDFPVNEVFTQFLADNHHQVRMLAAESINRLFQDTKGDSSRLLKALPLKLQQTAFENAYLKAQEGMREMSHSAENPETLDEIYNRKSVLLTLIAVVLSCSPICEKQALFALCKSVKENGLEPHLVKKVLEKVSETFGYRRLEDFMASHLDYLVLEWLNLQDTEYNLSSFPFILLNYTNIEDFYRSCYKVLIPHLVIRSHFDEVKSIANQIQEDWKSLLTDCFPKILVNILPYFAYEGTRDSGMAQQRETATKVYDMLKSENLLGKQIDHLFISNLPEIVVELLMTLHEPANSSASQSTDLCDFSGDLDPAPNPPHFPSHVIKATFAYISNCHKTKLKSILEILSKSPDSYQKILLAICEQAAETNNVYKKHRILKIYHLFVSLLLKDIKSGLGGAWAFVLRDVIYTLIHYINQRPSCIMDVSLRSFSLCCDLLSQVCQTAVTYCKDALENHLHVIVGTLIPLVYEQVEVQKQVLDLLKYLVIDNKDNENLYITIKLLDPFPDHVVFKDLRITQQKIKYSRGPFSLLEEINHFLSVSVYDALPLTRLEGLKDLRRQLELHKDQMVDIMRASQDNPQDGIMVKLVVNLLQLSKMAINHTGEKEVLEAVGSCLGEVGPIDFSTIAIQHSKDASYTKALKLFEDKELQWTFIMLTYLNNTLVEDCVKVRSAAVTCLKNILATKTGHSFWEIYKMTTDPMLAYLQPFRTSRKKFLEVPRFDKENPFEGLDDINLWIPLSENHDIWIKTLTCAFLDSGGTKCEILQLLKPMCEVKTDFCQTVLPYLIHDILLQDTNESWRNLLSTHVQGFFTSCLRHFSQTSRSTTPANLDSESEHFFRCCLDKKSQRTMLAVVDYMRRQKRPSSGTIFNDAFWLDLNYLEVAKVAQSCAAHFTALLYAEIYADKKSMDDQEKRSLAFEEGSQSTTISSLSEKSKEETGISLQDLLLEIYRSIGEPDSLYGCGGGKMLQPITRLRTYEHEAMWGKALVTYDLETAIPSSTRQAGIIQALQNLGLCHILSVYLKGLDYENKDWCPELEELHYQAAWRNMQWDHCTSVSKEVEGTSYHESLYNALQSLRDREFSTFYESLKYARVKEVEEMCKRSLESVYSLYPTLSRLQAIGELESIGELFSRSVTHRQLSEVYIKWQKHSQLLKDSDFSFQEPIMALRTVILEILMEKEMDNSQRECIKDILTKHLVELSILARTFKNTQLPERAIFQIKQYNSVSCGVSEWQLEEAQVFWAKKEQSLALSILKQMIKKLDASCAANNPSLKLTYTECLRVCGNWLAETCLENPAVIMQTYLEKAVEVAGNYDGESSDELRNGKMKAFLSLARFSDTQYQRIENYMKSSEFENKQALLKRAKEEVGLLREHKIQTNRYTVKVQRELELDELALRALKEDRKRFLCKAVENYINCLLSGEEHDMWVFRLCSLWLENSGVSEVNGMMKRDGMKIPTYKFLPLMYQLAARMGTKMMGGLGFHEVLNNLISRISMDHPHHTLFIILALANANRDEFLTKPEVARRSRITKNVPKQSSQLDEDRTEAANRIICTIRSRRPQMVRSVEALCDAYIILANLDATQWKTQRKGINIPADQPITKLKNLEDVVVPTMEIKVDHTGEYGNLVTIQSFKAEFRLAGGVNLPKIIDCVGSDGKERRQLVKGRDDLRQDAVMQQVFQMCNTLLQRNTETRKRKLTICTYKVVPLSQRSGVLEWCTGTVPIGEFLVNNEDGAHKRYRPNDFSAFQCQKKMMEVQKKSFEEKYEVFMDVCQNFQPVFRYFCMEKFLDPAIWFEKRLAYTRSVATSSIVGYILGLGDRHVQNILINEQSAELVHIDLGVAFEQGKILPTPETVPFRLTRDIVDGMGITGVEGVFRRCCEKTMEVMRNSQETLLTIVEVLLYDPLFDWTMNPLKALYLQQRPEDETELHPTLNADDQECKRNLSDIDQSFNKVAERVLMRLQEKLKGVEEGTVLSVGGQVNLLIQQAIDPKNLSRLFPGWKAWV

ATR = biological target: T2, ATR (Homo sapiens, UniProt Q13535); test: In vitro kinase assay, ATR with GST-peptide / GST-fusion substrates; details: for Relative Phosphorylation (%) ATR: GST-peptide substrate, relative to the p53ser15 site; for phosphorylation by ATR in vitro (in words): larger GST-fusion fragments or full-length proteins as substrates
T2 construct: made in house; host or cells: 293T cells, transient transfection with pBJF-FRPwt, anti-FLAG M2 immunoprecipitate
Method: (§1) FIGS. 1A, 1B, and 1C. Phosphorylation of GST-p53 mutant peptides (amino acids 9-21) by ATM, ATR, and DNA-PK in vitro. In vitro kinase assays with immunoprecipitated, transfected flag-tagged ATM (A) or ATR (B) or purified DNA-PK (C) were performed with GST-p53 peptides containing the amino acid substitutions indicated. The amount of 32P-labeled GST-peptides was quantitated with a PhosphorImager and was normalized for each of the kinases to the level of phosphorylation of wild-type GST-p53.
(§2) FIGS. 2A, 2B, and 2C. Phosphorylation of candidate targets of by ATM, ATR and DNA-PK in vitro. GST-peptides containing the putative target sequences were used as substrates for the kinase assay.
Transfection and Kinase Activity Assays. 293T cells were transiently transfected with 10 μg of either pcDNA-FLAG-ATMwt, pcDNA-FLAG-ATMkd, pBJF-FRPwt or pBJF-FRPkd (Cliby et al., EMBO J., 17:159, 1998) using calcium phosphate and harvested two days later. Cells were lysed through sonication in TGN buffer [50 mM Tris (pH 7.5), 50 mM glycerophosphate, 150 mM NaCl, 10% glycerol, 1% Tween 20, 1 mM NaF, 1 mM NaVO4, 1 mM PMSF, […] Pepstatin A, 5 μg/ml leupeptin, 10 μg/ml Aprotinin and 1 mM DTT] as described (Brunn et al., Science, 277:99-101,1997). After centrifugation at 13,000 ×g, 2 mg of extract were incubated with mouse IgG and protein A/G sepharose beads (Calbiochem). FLAG-tagged proteins were then immunoprecipitated with anti-FLAG M2 monoclonal antibody (Eastman Kodak Company) and protein A/G sepharose beads. Immunoprecipitates were washed twice with TGN buffer, once with 100 mM Tris (pH 7.5) plus 0.5 M LiCl, and twice with kinase buffer [10 mM Hepes (pH 7.5), 50 mM glycerophosphate, 50 mM NaCl, 10 mM MgCl2, 10 mM MnCl2, 5 μM ATP, and 1 mM DTT]. Kinase reactions were initiated by resuspending washed beads in 30 μl of kinase buffer containing 10 μCi [γ-^32P]ATP and 1 μg GSTp531-101 and incubated for 30 minutes at 30° C. Proteins were electrophoretically separated by SDS-polyacrylamide gel electrophoresis, transferred to nitrocellulose, and analyzed on a PhosphorImager. FLAG-tagged proteins and GSTp531-101 were subjected to immunoblotting with either anti-FLAG M2 antibody or monoclonal antibodies directed towards the NH2-terminus of p53 (Ab-2 and Ab-6, Calbiochem) as described (Siliciano et al., Genes Dev., 11:3471, 1997).
Phosphorylation of Ser^15 of p53 by ATM and ATR/FRP1 in vitro. […] Proteins from each reaction were separated by SDS polyacrylamide gel electrophoresis (7% gel), transferred to nitrocellulose, and analyzed either on a PhosphorImager or by immunoblotting. Amounts of FLAG-tagged ATM or ATR in each kinase reaction were measured by immunoblotting with anti-FLAG M2 (top panel) and amount of [γ^32P]phosphate incorporated into ATM or ATR during the reaction (lower panel). […] An upper immunoreactive band represents phosphorylated GSTp53 fusion protein. The same exposures were used for ATM, ATR/FRP1 and corresponding substrate proteins.
(§3) Plasmids and GST-fusion protein production. For GST fusion peptide expression vectors, complementary oligonucleotides encoding desired peptides (14 amino acids) were cloned into the BamHI/SmaI site of pGEX-2T (Pharmacia). The constructs were confirmed by restriction enzyme digests and DNA sequencing. To construct the larger GST-p95 (327-391) protein fragment, p95 DNA encoding amino acids 327-391 was amplified by PCR with Pfu polymerase using the following primers: 5′ sense,
In vitro kinase assays and immunoprecipitation. […] Cleared supernatants were immunoprecipitated with anti-Flag M2 antibody and protein A/G agarose, the beads were washed with TGN buffer followed by TGN buffer plus 0.5 M LiCl, and two washes with kinase buffer [20 mM HEPES (pH 7.5), 50 mM NaCl, 10 mM MgCl2, 1 mM dithiothreitol (DTT) and 10 mM MnCl2]. […] ATP and […] of GST-fusion substrate (GST-p53:1-101), in varying concentration of Mn^2+. […]

DNA-PK = DNA-PK (Homo sapiens, UniProt P78527); test: In vitro kinase assay, purified DNA-PK with GST-peptide / GST-fusion substrates; details: GST-peptide substrate; relative to the p53ser15 site
Method: as §1, §2, §3
In vitro kinase assays and immunoprecipitation. […] Cleared supernatants were immunoprecipitated with anti-Flag M2 antibody and protein A/G agarose, the beads were washed with TGN buffer followed by TGN buffer plus 0.5 M LiCl, and two washes with kinase buffer [20 mM HEPES (pH 7.5), 50 mM NaCl, 10 mM MgCl2, 1 mM dithiothreitol (DTT) and 10 mM MnCl2]. […] ATP and […] of GST-fusion substrate (GST-p53:1-101), in varying concentration of Mn^2+. The kinase reaction was conducted at 30° C. for 20 min and stopped by the addition of SDS-PAGE loading buffer. Proteins were separated on SDS-polyacrylamide gel electrophoresis (SDS-PAGE) and transferred to nitrocellulose. Radiolabeled proteins were visualized and quantitated on a Phosphorimager (Molecular Dynamics). Use of equivalent amounts of flag-tagged ATM or ATR in the different lanes was confirmed by immunoblotting with anti-flag antibody. In some reactions, either supercoiled DNA (pBluescript II KS, Stratagene) or linearized DNA (pBluescript II KS cut with EcoR1) was added ([…]). For endogenous ATM kinase reactions, endogenous ATM was immunoprecipitated from GM0536 lymphhoblasts with ATM monoclonal antibody (D16.11) in M buffer (PBS, 10% glycerol, 0.2% Tween 20, 0.3% NP-40, 1 mM NaF, 1 mM Na3VO4, 1 mM PMSF, 1x protease inhibitor mixture]. After washing with M buffer and kinase buffer, in vitro kinase reactions were carried out according to procedures described above. The DNA-PK in vitro kinase reaction was performed as previously described (Gottlieb and Jackson, 1993), using 20 ng each of DNA-PKcs or DNA-PK (20 ng DNA-PKcs premixed with 20 ng Ku 70/80).

Relative Phosphorylation (%) ATM (ATM kinase): 111%
Relative Phosphorylation (%) ATR (ATR): 40%
Relative Phosphorylation (%) DNA-PK (DNA-PK): 33%
Molecule: PTS (123F2): GST-peptide WETPDLSQAEIEQK (SEQ ID NO:37), S61 (not fully specified (N-terminus); also: GST fusion)

Relative Phosphorylation (%) ATM (ATM kinase): <1%
Relative Phosphorylation (%) ATR (ATR): 13%
Relative Phosphorylation (%) DNA-PK (DNA-PK): <1%
Molecule: MRE11 (SQ3): GST-peptide RARALRSQSEESAS (SEQ ID NO:13), S531 (also: GST fusion)

Relative Phosphorylation (%) ATM (ATM kinase): 8%
Relative Phosphorylation (%) ATR (ATR): 33%
Relative Phosphorylation (%) DNA-PK (DNA-PK): 12%
Molecule: BRCA1 (SQ3): GST-peptide SSEYPISQNPEGLS (SEQ ID NO:34), S1466 (also: GST fusion)

Relative Phosphorylation (%) ATM (ATM kinase): 9%
Relative Phosphorylation (%) ATR (ATR): 20%
Relative Phosphorylation (%) DNA-PK (DNA-PK): 5%
Molecule: CUT1: GST-peptide GASPVLSQGVDPRS (SEQ ID NO:36), S1615 (also: GST fusion)

phosphorylation of GST-peptide substrate by ATM (in words) (ATM kinase): not by ATM
Relative Phosphorylation (%) ATM (ATM kinase): <1%
phosphorylation of GST-peptide substrate by ATR (in words) (ATR; GST-conjugated 14 amino acid peptides): phosphorylated by ATR
Relative Phosphorylation (%) ATR (ATR): 132%
Relative Phosphorylation (%) DNA-PK (DNA-PK): <1%
Molecule: BRCA2: GST-peptide KVSPYLSQFQQDKQ (SEQ ID NO:29), S2156 (also: GST fusion)

Relative Phosphorylation (%) ATM (ATM kinase): 14%
Relative Phosphorylation (%) ATR (ATR): 58%
Relative Phosphorylation (%) DNA-PK (DNA-PK): 2%
Molecule: CHK1 (SQ1): GST-peptide NVKYSSSQPEPRTG (SEQ ID NO:16), S317 (also: GST fusion)

Relative Phosphorylation (%) ATM (ATM kinase): 12%
Relative Phosphorylation (%) ATR (ATR): 12%
Relative Phosphorylation (%) DNA-PK (DNA-PK): 2%
Molecule: CtIP: GST-peptide DPGADLSQYKMDVT (SEQ ID NO:44), S664 (also: GST fusion)

Relative Phosphorylation (%) ATM (ATM kinase): <1%
Molecule: MRE11 (SQ4): GST-peptide SASRGGSQRGRAFK (SEQ ID NO:14), S590 (also: GST fusion)

phosphorylation by ATM in vitro (in words) (ATM kinase): did not phosphorylate
Molecule: GST: glutathione S-transferase alone, control substrate [reference compound]

phosphorylation by ATM in vitro (in words) (ATM kinase): not phosphorylated
phosphorylation by ATR in vitro (in words) (ATR): not phosphorylated
Molecule: full-length WRN protein: purified recombinant full-length WRN protein

phosphorylation by ATM in vitro (in words) (ATM kinase): excellent in vitro substrate
B1: GST-p95 (327-391): larger GST-p95 protein fragment, p95 amino acids 327-391, containing serine 343 (protein)
chain: GHPSTGLKTTTPGPSLSQGVSVDEKLMPSAPVNTTTYVADTESEQADTWDLSERPKEIKVSKMEQ
modifications: also: GST fusion

phosphorylation by ATM in vitro (in words) (ATM kinase): good substrate
phosphorylation by ATM in vitro (in words) (ATM kinase; listed as full-length 4E-BP 1): can phosphorylate
B3: PhasI/4E-BP1: full-length 4E-BP1 protein, translation regulator in insulin signaling (protein)
chain: SAGSSCSQTPSRAIPTRRVALGDGVQLPPGDYSTTPGGTLFSTTPGGTRIIYDRKFLMECRNSPVAKTPPKDLPTIPGVTSPTSDEPPMQASQSHLHSSPEDKRAGGEESQFEMDI

The next lines start with the molecule.

Molecule: WRN (SQ2): GST-peptide TIGMHLSQAVKAGC (SEQ ID NO:20), S1292 (not fully specified (N-terminus); also: GST fusion; listed as Homo sapiens)
Relative Phosphorylation (%) ATM (ATM kinase): 10%
Relative Phosphorylation (%) ATR (ATR): 33%
Relative Phosphorylation (%) DNA-PK (DNA-PK): 5%

Molecule: c-ABL: GST-peptide YPGIDLSQVYELLE (SEQ ID NO:23), S446 (not fully specified (N-terminus); also: GST fusion; listed as Homo sapiens)
Relative Phosphorylation (%) ATM (ATM kinase): <1%
Relative Phosphorylation (%) ATR (ATR): 8%
Relative Phosphorylation (%) DNA-PK (DNA-PK): <1%

Molecule: wt p53: recombinant glutathione S-transferase-conjugated p53 protein containing the first 101 amino acids of p53
phosphorylation by ATM in vitro (in words) (ATM kinase): phosphorylated
ATR/FRP-1 activity towards substrate, less than ATM (ATR; identical experimental conditions): at least 20 fold

Molecule: BRCA1 (SQ2): GST-peptide DCSGLSSQSDILTT (SEQ ID NO:33), S1387 (also: GST fusion)
Relative Phosphorylation (%) ATM (ATM kinase): 42%
Relative Phosphorylation (%) ATR (ATR): 35%
Relative Phosphorylation (%) DNA-PK (DNA-PK): 36%

Molecule: RPA34kD (SQ2): GST-peptide IVPCTISQLLSATL (SEQ ID NO:41), S52 (not fully specified (N-terminus); also: GST fusion; listed as Homo sapiens)
Relative Phosphorylation (%) ATM (ATM kinase): <1%
Relative Phosphorylation (%) ATR (ATR): 31%
Relative Phosphorylation (%) DNA-PK (DNA-PK): <1%

Molecule: 4EBP1 (Phas I): GST-peptide EPPMEASQSHLRNS (SEQ ID NO:9), S94 (also: GST fusion)
phosphorylation of GST-peptide substrate by ATM (in words) (ATM kinase): excellent in vitro substrate
Relative Phosphorylation (%) ATM (ATM kinase): 78%
Relative Phosphorylation (%) ATR (ATR): 66%
Relative Phosphorylation (%) DNA-PK (DNA-PK): 10%

Molecule: MRE11 (SQ5): GST-peptide SSSKIMSQSQVSKG (SEQ ID NO:15), S648 (also: GST fusion)
Relative Phosphorylation (%) ATM (ATM kinase): <1%

B2: GST-WRN (1099-1198): GST-linked WRN fragment, amino acids 1099-1198 (protein)
chain: STEKKSNLEKLYSYKPCDKISSGSNISKKSIMVQSPEKAYSSSQPVISAQEQETQIVLYGKLVEARQKHANKMDVPPAILATNKILVDMAKMRPTTVENV
modifications: left off: a dimerising Fc or GST
phosphorylation by ATM in vitro (in words) (ATM kinase): not phosphorylated
phosphorylation by ATR in vitro (in words) (ATR): not phosphorylated
